Laboratory results taken from publication PMC4329988.

Biological target: phosphatidyl inositol 5-phosphate 4-kinase 2β subunit (PI5P4K2β), C-terminal 3xFLAG and two 6xHis tags (chicken (endogenous in DT40))
Assay: affinity purification with mass spectrometry; SILAC-iPAC: lysates of JPR3 cells (tagged PI5P4K2β) and tag-less wild-type DT40 cells, differentially SILAC labelled (K6R6 or K0R0, reciprocal labellings), mixed 1:1; captured in parallel on EZview ANTI-FLAG M2 Affinity Gel and TALON Metal Affinity Resin for 1 h; lysis buffer 1x PBS pH 7.4, 1% Triton X-100; eluted with 3xFLAG peptide or 150 mM imidazole; LC-MS/MS, MaxQuant ratios

ratio of PI5P4K2β:PI5P4K2α in the pull-down: 1.28
B1: phosphatidyl inositol 5-phosphate 4-kinase 2α subunit (PI5P4K2α) (natural protein)
chain: MAAPGTVASVMASKTKTKKKHFVVQKVKLFRASDPLLSVLMWGVNHSINELSHVQIPVMLMPDDFKAYSKIKVDNHLFNKENMPSHFKFKEYCPMVFRNLRERFGIDDQDFQNSLTRSAPLANDSQARSGARFHTSYDKRYIIKTITSEDVAEMHNILKKYHQFIVECHGNTLLPQFLGMYRLTVDGVEIYMIVTRNVFSHRLSVYRKYDLKGSTVAREASDKEKAKELPTFKDNDFINDGQKIHIDENNKRMFLEKLKKDVEFLAQLKLMDYSLLVGIHDVERAEQEEVECEENDGEDEGESDGTHPIGTPPDSPGNTLNSSLPLAPGEFDPAIDVYGIKSHESAPRKEVYFMAIIDILTHYDAKKKAAHAAKTVKHGAGAEISTVNPEQYSKRFLDFIANILT
